Test results from PMC4757811 (Biochemistry, 2015).
Square brackets hold non-standard residues; d marks the D form. Ends that are not written are not given here. pY = N[C@@H](Cc1ccc(OP(=O)(O)O)cc1)C(=O)O

Target: Brk SH2 domain (UniProt Q13882 78-170)
Test: ITC

Brk SH2 domain, sequence (Q13882 78-170): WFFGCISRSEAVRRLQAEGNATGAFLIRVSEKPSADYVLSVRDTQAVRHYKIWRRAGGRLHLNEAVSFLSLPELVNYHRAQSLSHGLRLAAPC

Row | Kd [µM] | Binder
1 | 15 | FTS[pY]ENPTG [Phosphorylated Brk C-terminal tail peptide, wild type (FTSpYENPTG)]
2 | 53 | FTS[pY]ENLTG [Phosphorylated Brk C-terminal tail peptide with the P450L substitution (FTSpYENLTG)]
